Among the data in article PMC3317225, “MsDpo4—a DinB Homolog from Mycobacterium smegmatis—Is an Error-Prone DNA Polymerase That Can Promote G:T and T:G Mismatches” (Journal of Nucleic Acids, 2012) are Km values, retold here.

Holding throughout (assay): steady-state primer extension, 6-FAM labelled primer, gel, Lineweaver-Burk
Holding throughout (type): biochemical, Mycolicibacterium smegmatis

Substrate in series [1]: Nc1ccn([C@H]2C[C@H](O)[C@@H](COP(=O)(O)OP(=O)(O)OP(=O)(O)O)O2)c(=O)n1
To be noted: template dG (correct pair G:C), 20 nM DNA T1P1, 1 nM enzyme, Mg2+, pH 8.0, 37°C (given for the primer extension assay), number in parentheses is standard error. The source says:
(§1) steady-state primer extension, 6-FAM labelled primer, gel, Lineweaver-Burk on MsDpo4

Substrate in series [2]: Nc1nc2c(ncn2[C@H]2C[C@H](O)[C@@H](COP(=O)(O)OP(=O)(O)OP(=O)(O)O)O2)c(=O)[nH]1
To be noted: template dT (mismatch T:G, misincorporation), 20 nM DNA T2P1, 10 nM enzyme, Mg2+, pH 8.0, 37°C (given for the primer extension assay), number in parentheses is standard error.
Excerpt: as §1

Substrate in series [3]: Cc1cn([C@H]2C[C@H](O)[C@@H](COP(=O)(O)OP(=O)(O)OP(=O)(O)O)O2)c(=O)[nH]c1=O
Particulars: template dG (mismatch G:T, misincorporation), 20 nM DNA T1P1, 10 nM enzyme, Mg2+, pH 8.0, 37°C (given for the primer extension assay), number in parentheses is standard error.
Excerpt: as §1

Substrate in series [4]: Nc1ncnc2c1ncn2[C@H]1C[C@H](O)[C@@H](COP(=O)(O)OP(=O)(O)OP(=O)(O)O)O1
Particulars: template dT (correct pair T:A), 20 nM DNA T2P1, 1 nM enzyme, Mg2+, pH 8.0, 37°C (given for the primer extension assay), number in parentheses is standard error.
Excerpt: as §1

B1: MsDpo4 (Mycolicibacterium smegmatis MC2 155) (protein)
chain: MTKWVLHVDLDQFLASVELRRRPDLRGQPVIVGGSGDPSEPRKVVTCASYEAREFGVHAGMPLRAAARRCPDATFLPSDPAAYDEASEQVMGLLRDLGHPLEVWGWDEAYLGADLPDESDPVEVAERIRTVVAAETGLSCSVGISDNKQRAKVATGFAKPAGIYVLTEANWMTVMGDRPPDALWGVGPKTTKKLAAMGITTVADLAVTDPSVLTTAFGPSTGLWLLLLAKGGGDTEVSSEPWVPRSRSHVVTFPQDLTERREMDSAVRDLALQTLAEIVEQGRIVTRVAVTVRTSTFYTRTKIRKLPAPSTDAGQIVDTALAVLDQFELDRPVRLLGVRLELAMDDVPRPAVTAGT
notes: msmeg_1014 in pGEX6P1, expressed as GST-MsDpo4 fusion in bacteria; single-chain Y-family polymerase
As for B1, the Km is 4.3 (0.69) μM in series [1], 166.5 (39.01) μM in series [2], 165.5 (39.70) μM in series [3] and 5.5 (1.54) μM in series [4].
